Laboratory results taken from the nanobody polyreactivity screen of Harvey et al. (2022).

Experiment: yeast display, Sf9 membrane polyspecificity reagent, FACS + sequencing; frameworks hold sequencing errors
Summary of the method: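 Nanobodies from a synthetic yeast display library (Saccharomyces cerevisiae BJ5465), induced 36–48 hours with galactose, were stained 1 hour at 4 °C with 10% biotinylated, detergent-solubilized Sf9 membrane reagent, enriched on streptavidin microbeads, then FACS-sorted. Anti-HA (expression) and streptavidin (reagent binding) fluorescence set low and high (top ~1%) gates. Polyreactivity labels come from the gate of origin. Genes were colony-PCR amplified, MiSeq 2 × 250 sequenced and filtered by CDR length.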
With “QVQLVESGGGLVQAGGSLRLSCAASGSIFFWYTMGWYRQAPGKERDLVATITGSGSSTTYADSVKGRFTISRDNAKNTVYLQMNSLKPEDTAVYSCAAADIIDHSFPYDYWGQGTQVTVSS” the “polyreactivity (PSR sort gate)” value was “low polyreactivity”. In the case of “QVQLVESGGGLVQAGGSLRLSCAASGRIFDRYDMGWYRQAPGKERELVAGITASGGSTYYADSVKGRFTISRDNAKNTVYLQMTSLKPEDTAVYYCAVVYGYRYYYWGQGTQVTVSS”, the “polyreactivity (PSR sort gate)” value is reported as “high polyreactivity”. For “QVQLVESVGGLVQAGGSLRLSCAASGLTSGLNAMGWYRQAPGKERELVATIRTNGGSTYYADSVKGRFTISRDNAKNTVYLQMNSLKPEDTAVYYCAADSVLDRPVLYLWPWYLGDYWGQGTQVTVSS”, the “polyreactivity (PSR sort gate)” value was “low polyreactivity”. For “QVQLVESGGGLVQAGVSLRLSCAASGRIFSPYAMGWYRQAPGKERELVAAIDWDGGGTYYADSVKGRFTISRDNAKNTVYLQMNSLKPEDTAVYYCAAETDLANGTSPSDYCGQGTQVTVSS”, the “polyreactivity (PSR sort gate)” value was “low polyreactivity”. For “QVQLVESGGGLVQAGGSLRISCAASGRTFARNSMGWYRQAPGKERELVATITIGGRTYYADSVKGRFTISRDNAMNTVYLQMNSLKPEDTAVYYCAKRISGYRGDYWGQGTQVTVSS”, the “polyreactivity (PSR sort gate)” value was “high polyreactivity”. In the case of “QVQLVESGGGLVQAGGSLRLSCAASGRIFGRYAMGGSRQAPGKERELVAAITSSGGNTYYADSVKGRFTISRDNAKNTVYLQMNSLKPEDTAVYYCNALSARSRLQSDYWGQGTQVTVSS”, the “polyreactivity (PSR sort gate)” value is reported as “high polyreactivity”. With “QVQLVESGGGLVQAGGSLRLSCAASGGTFQQNAMGWSRQAPGKERELVAAISWSDGSTYYADSVKGRFTISRDYATNTVYLQMNSLTPEDTAVYYCAADFTYYDSPYRDYNYESWGQGTQVTVSS” the “polyreactivity (PSR sort gate)” value was “low polyreactivity”. With “QVQLVESGGGLVHAGGSLRLSCAASGRTFRNNAMVWYRQAPGKEREWVAAITSGGSTNYADSVKGRFTISRDNAKNPVYLQMISLKPEDTGVYYCAKDFWYVTGGWSSGMDYWGQGTQVTVSS” the “polyreactivity (PSR sort gate)” value was “low polyreactivity”. In the case of “QVQLVESGGGLVQAGGSLRLSCAASGSTFRGYAMGWYRQAPGKERELVASISWNGTSTYYADSVKGRFTISRDNAKNTVYLQMNSLKPEDTAVYYCNVRFNYRGTYDYWGQGTQVTVSS”, the “polyreactivity (PSR sort gate)” value is reported as “low polyreactivity”. For “QVQLVESGGGLVQAGGSLRLSCAASGFTFPFYAMGWYRPAHRKERELVAAITASGGSTYYADSVKGRFTISRDNAKYTVYLQMNSLKPEDTAVYYCATSIYRGYYYWGQGTQVTVSS”, the “polyreactivity (PSR sort gate)” value was “high polyreactivity”. With “QVQLVESGGGLVQAGGSLRLSCAASGFISSENAMGWYRQAPGKERELVAAISSGGSTNYADSVKGRFTISRDNAKNTVYLQMNSLKPEDTAVYYCAATLPGWYNEDDSWGQGTQVNVSS” the “polyreactivity (PSR sort gate)” value was “low polyreactivity”. For “QVQLVESGGGLVQAGGSLRLSCAASGSIFYFNAMGWYRQAAGKEWELVATISRRGGSTYYADSVKGRFTISRDNAKKTVYLQMNSLKPEDTAVYYCAADYYTLYPVYIKRYGYWGQGTQVTVSS”, the “polyreactivity (PSR sort gate)” value was “high polyreactivity”. With “QVQLVESGGGLVQAGGSLRLSCAASGSTFVPNDMGGYRQAPGKERELVAAISYSGGSTYYADSVKGRFTISRDNAKNTVYLQMNSLKPEDTAVYYCAADKYLGELDYWGQGTQVTVSS” the “polyreactivity (PSR sort gate)” value was “low polyreactivity”. For “QVQLVESGGGLVQAGGSLHLSCAASGRTFVWYAMGWYRQAPGKERELVAAISWSGTSTYYADSVKGRFTNSRDYAKYNVYLQMNSLKPEDTAVYYCYEKYYYWGQGTQVTVSS”, the “polyreactivity (PSR sort gate)” value was “high polyreactivity”. In the case of “HAQLQESGGCLVQAGGSLRPSCAASGSIFRVSGMGWYRRAPGKERELVASIGFGSITYYADRVKGRFTISRDNAINTVYLQMNSLKPEDTAVYYCAVQVQDESWLDYWGQGTQVTVSC”, the “polyreactivity (PSR sort gate)” value is reported as “low polyreactivity”. For “QVQLVESGGGLVQAGGSLRLSCAASGRIDAYTMGWYRQAPGKERELVAAISTSTSNTYYADSVKGRFTISRDNAKNTVYLQMNSLKPEDTAVYYCDEAYYSPWWGYYWGQGTQVTVSS”, the “polyreactivity (PSR sort gate)” value was “low polyreactivity”. With “QVQLVESGGGLVQAGGSLRLSCAASGRTFRLYALGWYRQAPGKERELVAAITRGGRTNYADSVTGRFTISRDNAKNTVYLQMNSLKPEDTAVYYCAARYVERHTDYYYWGQGTQVTVSS” the “polyreactivity (PSR sort gate)” value was “low polyreactivity”.
